Experimental data from PMC10609481, “Substrate DNA Promoting Binding of Mycobacterium tuberculosis MtrA by Facilitating Dimerization and Interpretation of Affinity by Minor Groove Width”.

T1: MtrA (Mycobacterium tuberculosis H37Rv, UniProt P9WGM7 1-228)
T1 sequence: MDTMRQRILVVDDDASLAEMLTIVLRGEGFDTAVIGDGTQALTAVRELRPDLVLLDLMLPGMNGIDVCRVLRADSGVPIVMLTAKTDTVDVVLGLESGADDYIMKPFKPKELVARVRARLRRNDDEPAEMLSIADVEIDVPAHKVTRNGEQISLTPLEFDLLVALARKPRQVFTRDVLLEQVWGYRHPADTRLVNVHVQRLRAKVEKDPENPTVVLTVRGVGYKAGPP


Each binder was assayed against T1, MtrA (assay: BLI). Conditions: protein: recombinant; tags: His6 (pET28a, BamHI/XhoI; N-terminal, inferred from stop codon in reverse primer); chain copies: 2; blunt.

Row | Binder | Kd
1 | Rv3859c G20A T21G (dsDNA) DNA 1: GTTACGTGATCGAATTGTGAGCCAGG DNA 2: CCTGGCTCACAATTCGATCACGTAAC | 15.7 µM
2 | Rv3859c G20A T21C (dsDNA) DNA 1: GTTACGTGATCGAATTGTGACCCAGG DNA 2: CCTGGGTCACAATTCGATCACGTAAC | 0.124 µM
3 | Rv3859c G20A T21A (dsDNA) DNA 1: GTTACGTGATCGAATTGTGAACCAGG DNA 2: CCTGGTTCACAATTCGATCACGTAAC | 19.5 µM
4 | Rv3859c G20A (dsDNA) DNA 1: GTTACGTGATCGAATTGTGATCCAGG DNA 2: CCTGGATCACAATTCGATCACGTAAC | 0.178 µM
5 | Rv3859c G20T (dsDNA) DNA 1: GTTACGTGATCGAATTGTGTTCCAGG DNA 2: CCTGGAACACAATTCGATCACGTAAC | 4380 µM
6 | Rv3859c G20C (dsDNA) DNA 1: GTTACGTGATCGAATTGTGCTCCAGG DNA 2: CCTGGAGCACAATTCGATCACGTAAC | 7120 µM
